The results in this text go back to patent US8895526B2, “Identification of RNAI targets and use of RNAI for rational therapy of chemotherapy-resistant leukemia and other cancers” (Cold Spring Harbor Laboratory, priority 2009, dated 2014).

Sequences and labels used below:
B1: Slc15a3.1086: shRNA, SEQ ID NO: 180 (nucleic acid)
chain: TGCTGTTGACAGTGAGCGCCTGGTTCTATTGGAGCATCAATAGTGAAGCCACAGATGTATTGATGCTCCAATAGAACCAGTTGCCTACTGCCTCGGA
B2: Plod3.2501: shRNA, SEQ ID NO: 168 (nucleic acid)
chain: TGCTGTTGACAGTGAGCGAACCGTTGATATCCACATGAAATAGTGAAGCCACAGATGTATTTCATGTGGATATCAACGGTGTGCCTACTGCCTCGGA
B3: Plcb2.3742: shRNA, SEQ ID NO: 167 (nucleic acid)
chain: TGCTGTTGACAGTGAGCGCAGGGACCTTAATACTCAGATATAGTGAAGCCACAGATGTATATCTGAGTATTAAGGTCCCTTTGCCTACTGCCTCGGA
B4: Acsl1.3559: shRNA, SEQ ID NO: 88 (nucleic acid)
chain: TGCTGTTGACAGTGAGCGCCAGCATTTCACTTTACTGCAATAGTGAAGCCACAGATGTATTGCAGTAAAGTGAAATGCTGTTGCCTACTGCCTCGGA
B5: Cacna1f.3314: shRNA, SEQ ID NO: 99 (nucleic acid)
chain: TGCTGTTGACAGTGAGCGACTGGCCTGCGCTACTATACAATAGTGAAGCCACAGATGTATTGTATAGTAGCGCAGGCCAGCTGCCTACTGCCTCGGA
B6: Centa1.1387: shRNA, SEQ ID NO: 105 (nucleic acid)
chain: TGCTGTTGACAGTGAGCGCCAGAACCTCATTAAAGTTGAATAGTGAAGCCACAGATGTATTCAACTTTAATGAGGTTCTGATGCCTACTGCCTCGGA
B7: EG277089.605: shRNA, SEQ ID NO: 115 (nucleic acid)
chain: TGCTGTTGACAGTGAGCGCCTCAATCTCATTGGTGGCTTATAGTGAAGCCACAGATGTATAAGCCACCAATGAGATTGAGATGCCTACTGCCTCGGA
B8: Vnn3.345: shRNA, SEQ ID NO: 189 (nucleic acid)
chain: TGCTGTTGACAGTGAGCGAACGCCAGAAGATGGAATCTATTAGTGAAGCCACAGATGTAATAGATTCCATCTTCTGGCGTCTGCCTACTGCCTCGGA
B9: Gdi1.2355: shRNA, SEQ ID NO: 130 (nucleic acid)
chain: TGCTGTTGACAGTGAGCGACTCTAGTATATTTCACAGAAATAGTGAAGCCACAGATGTATTTCTGTGAAATATACTAGAGCTGCCTACTGCCTCGGA
B10: Plod3.3138: shRNA, SEQ ID NO: 169 (nucleic acid)
chain: TGCTGTTGACAGTGAGCGACTCAGCCTCACTTTCAATAAATAGTGAAGCCACAGATGTATTTATTGAAAGTGAGGCTGAGGTGCCTACTGCCTCGGA
B11: Slc12a5.3582: shRNA, SEQ ID NO: 179 (nucleic acid)
chain: TGCTGTTGACAGTGAGCGAAACGAGGTCATCGTGAATAAATAGTGAAGCCACAGATGTATTTATTCACGATGACCTCGTTCTGCCTACTGCCTCGGA
B12: Hpgd.1070: shRNA, SEQ ID NO: 132 (nucleic acid)
chain: TGCTGTTGACAGTGAGCGCAAACTAGGTTATAACCTATAATAGTGAAGCCACAGATGTATTATAGGTTATAACCTAGTTTTTGCCTACTGCCTCGGA
B13: F10.1044: shRNA, SEQ ID NO: 117 (nucleic acid)
chain: TGCTGTTGACAGTGAGCGACACCATCTTGAATGAGTTCTATAGTGAAGCCACAGATGTATAGAACTCATTCAAGATGGTGCTGCCTACTGCCTCGGA
B14: Gdi1.1120: shRNA, SEQ ID NO: 129 (nucleic acid)
chain: TGCTGTTGACAGTGAGCGCCAACAGGAAGTCAGACATCTATAGTGAAGCCACAGATGTATAGATGTCTGACTTCCTGTTGATGCCTACTGCCTCGGA
B15: Syt17.721: shRNA, SEQ ID NO: 184 (nucleic acid)
chain: TGCTGTTGACAGTGAGCGCCGAGGAGATCATGTCCAAGTATAGTGAAGCCACAGATGTATACTTGGACATGATCTCCTCGTTGCCTACTGCCTCGGA
B16: Kcnh7.2642: shRNA, SEQ ID NO: 134 (nucleic acid)
chain: TGCTGTTGACAGTGAGCGCATGGTTCATCTTTATGCCAAATAGTGAAGCCACAGATGTATTTGGCATAAAGATGAACCATTTGCCTACTGCCTCGGA
B17: Park2.2222: shRNA, SEQ ID NO: 158 (nucleic acid)
chain: TGCTGTTGACAGTGAGCGCAACAGAGAAAGTGCCTATAAATAGTGAAGCCACAGATGTATTTATAGGCACTTTCTCTGTTATGCCTACTGCCTCGGA
B18: Gab3.527: shRNA, SEQ ID NO: 125 (nucleic acid)
chain: TGCTGTTGACAGTGAGCGCGACGGAAACACTAATAGTGTATAGTGAAGCCACAGATGTATACACTATTAGTGTTTCCGTCATGCCTACTGCCTCGGA
B19: Slc6a13.1196: shRNA, SEQ ID NO: 182 (nucleic acid)
chain: TGCTGTTGACAGTGAGCGACTGGGACTAGATAGCCAGTTTTAGTGAAGCCACAGATGTAAAACTGGCTATCTAGTCCCAGGTGCCTACTGCCTCGGA
B20: Ncf1.2370: shRNA, SEQ ID NO: 150 (nucleic acid)
chain: TGCTGTTGACAGTGAGCGCCAGAAGATCAATGCACATAAATAGTGAAGCCACAGATGTATTTATGTGCATTGATCTTCTGTTGCCTACTGCCTCGGA
B21: Atp6v0d1.481: shRNA, SEQ ID NO: 93 (nucleic acid)
chain: TGCTGTTGACAGTGAGCGACACCAGCGTTCAATAGCTGAATAGTGAAGCCACAGATGTATTCAGCTATTGAACGCTGGTGCTGCCTACTGCCTCGGA
B22: Flot2.1039: shRNA, SEQ ID NO: 120 (nucleic acid)
chain: TGCTGTTGACAGTGAGCGACAAGGTGACATCAGAAGTAAATAGTGAAGCCACAGATGTATTTACTTCTGATGTCACCTTGCTGCCTACTGCCTCGGA

The first data set deals with immortalized murine embryonic fibroblasts (Mef). Kind of data set: Pooled negative selection RNAi screening (deep sequencing). The data set is classed as cell-based. The following applies: deep sequencing reads, on dox compared to initial representation. The text has this:
(§1) In addition to the analysis of single shRNAs for inhibitory effects in vitro and in vivo, the combination of tet-on competent cancer models and tet-regulatable shRNA expression vectors allowing for monitoring shRNA expression through fluorescent and other reporter genes (e.g. TRMPV and derivates) facilitates pooled shRNA negative selection screening (FIG. 37). In such approaches a pool of over 1,000 shRNAs are retrovirally transduced into tet-on competent cancer models (here MLL/AF9+Nras AML) and selected for shRNA containing cells by either drug selection (e.g. G418) or fluorescence-activated cell sorting (FACS). Selected cell populations harboring a library of shRNAs then can be cultured in the absence or presence of doxycyline (off dox and on dox, respectively) or injected into syngeneic recipient mice that are either treated with doxycyline or left untreated.
(§2) The representation of each shRNA within the pool can be effectively assessed by deep sequencing of shRNA cassettes in a given cell population. For this, genomic DNA is extracted from leukemia cells containing the shRNA pool, and the shRNA guide or passenger strand (21-22 target gene specific nucleotides of the shRNA) by PCR using primers specific for common sequences flanking the gene specific part of the shRNA (e.g. miR30 19 nt loop and miR30 common 3′ sequence). The primers also contain 5′-adapters required for deep sequencing (e.g. for Illumina/Solexa sequencing primers are p5+mir3: 5′-[…]-3′ (SEQ ID NO: 215) and p7+Loop: 5′-[…]-3′ (SEQ ID NO: 216)). Deep sequencing is subsequently performed using a primer binding the flanking nucleotide sequence next to the target gene specific part of the shRNA (for Illumina/Solexa platforms the primer is mir30EcoR1Seq: 5′-TAGCCCCTTGAATTCCGA GGCAGTAGGCA-3′ (SEQ ID NO: 217)).
(§3) The use of shRNA vectors that allow for monitoring of shRNA expression through fluorescent and other reporter genes (e.g. TRMPV) in combination with tet-on competent mouse models facilitates the isolation of pure shRNA expressing cell populations (e.g. by FACS, for TRMPV by sorting of Venus/dsRed double positive cells (FIG. 38). This selection of shRNA expressing cells prior to DNA isolation strongly reduces the background caused by cell populations with insufficient shRNA induction, which are predicted to contain genomic representation of the whole shRNA library without shRNA specific shifts in representation. The final readout is based on the comparison of shRNA representation (i.e. deep sequencing read numbers) before the assay (t0) or from cell populations left without doxycycline treatment (off dox) to those where shRNA were induced and cells subsequently sorted for shRNA expressing cells (on dox). shRNA with inhibitory effects are predicted to loose representation (show less reads) on dox compared to t0 and off dox.
(§4) This pooled is RNAi screening strategy can be applied to rapidly survey inhibitory effects of large pools of shRNAs (˜1000 at a time) in different tet-on competent cancer models and normal control cells (FIG. 39). For example, a pool of 1166 shRNAs targeting 836 predominantly druggable genes associated with MLL fusion proteins in human leukemia and mouse models of MLL/AF9-induced AML (MLL cure library) was analyzed in pooled negative selection screening in tet-on competent MLL/AF9+Nras AML and immortalized murine embryonic fibroblasts (Mef) in parallel. To establish and validate this screening approach, the pool also contained 64 control shRNAs each of which have been previously analyzed for inhibitory effects in both AML cells and Mefs using the same experimental system (FIG. 40).
(§5) After pooling of 1166 experimental and 64 control shRNAs the presence of shRNAs was verified by deep sequencing of shRNAs within the plasmid vector pool (FIG. 41). […]
B1: the “Fold depletion in Mef” value is on record as 2.32 Fold.
Same read-out and setting: the figure for B2 is 2.62 Fold.
As for B3, the “Fold depletion in Mef” value was found to be 2.25 Fold.
Take B4: the “Fold depletion in Mef” value came to 1.45 Fold.
For the molecule B5, the “Fold depletion in Mef” value was found to be 2.14 Fold.
The same measure, in the same setting: the value for B6 was 0.77 Fold; that for B7 was 2.02 Fold.
Turning to B8, the “Fold depletion in Mef” value was 2.59 Fold.
As for B9, the “Fold depletion in Mef” value is on record as 2.86 Fold.
Turning to B10, the “Fold depletion in Mef” value is recorded as 0.71 Fold.
In the case of B11, the “Fold depletion in Mef” value was found to be 2.21 Fold.
Still for that read-out and setting: the value for B12 was 1.10 Fold; that for B13 was 1.25 Fold.
On the same count and under the same terms, the value for B14 was 1.98 Fold; that for B15 was 0.86 Fold; that for B16 was 0.92 Fold.
For B17, the “Fold depletion in Mef” value was determined as 1.32 Fold.
Turning to B18, the “Fold depletion in Mef” value came to 0.46 Fold.
On to B19, for which the “Fold depletion in Mef” value was found to be 1.52 Fold.
For B20, the “Fold depletion in Mef” value is given as 2.33 Fold.
As to B21, the “Fold depletion in Mef” value is 1.90 Fold.
In the case of B22, the “Fold depletion in Mef” value was determined as 2.72 Fold.

The next data set relates to tet-on competent MLL/AF9+Nras AML. The data set is described as above. The data set is classed as cell-based, mouse. As to conditions: deep sequencing reads, On Dox compared to T0.
Description: as §1, §2, §3, §4, §5
For B1, the “Fold depletion in AML” value stood at 10.29 Fold.
Take B2: the “Fold depletion in AML” value came to 12.30 Fold.
For B3, the “Fold depletion in AML” value was found to be 10.81 Fold.
For the molecule B4, the “Fold depletion in AML” value was found to be 10.18 Fold.
In the case of B5, the “Fold depletion in AML” value is on record as 12.52 Fold.
For the molecule B6, the “Fold depletion in AML” value is 11.44 Fold.
As to B7, the “Fold depletion in AML” value worked out at 25.37 Fold.
Take B8: the “Fold depletion in AML” value came to 10.19 Fold.
As to B9, the “Fold depletion in AML” value was 9.92 Fold.
Turning to B10, the “Fold depletion in AML” value is 21.28 Fold.
Same read-out and setting: the figure for B11 is 12.58 Fold; for B12 it is 10.43 Fold; for B13 it is 10.52 Fold.
Take B14: the “Fold depletion in AML” value turned out to be 24.81 Fold.
Still for that read-out and setting: the figure for B15 is 10.25 Fold; for B16 it is 10.58 Fold; for B17 it is 11.36 Fold.
Same read-out and setting: the figure for B18 is 10.22 Fold.
B19: the “Fold depletion in AML” value came to 9.77 Fold.
Consider B20, for which the “Fold depletion in AML” value is on record as 10.06 Fold.
B21: the “Fold depletion in AML” value came to 12.03 Fold.
The same measure, in the same setting: the figure for B22 is 10.89 Fold.
